T1: Man9-V3 glycopeptide (cyclic)
T1 peptide: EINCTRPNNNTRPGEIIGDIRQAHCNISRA


Biological target: T1, Man9-V3 glycopeptide
Experiment: BLI

| Binder | Kd [nM] |
| --- | --- |
| DH270.3 (antibody, V domains shown) VH: QVQLVQSGAEMKNPGASVKVSCAASGYTFTDFYIHWVRLAPGQGLEWMGWMNPKTGRTNNAQNFQGRVIMTRDTSIGTAYMELRRLTSDDTAVYYCVTGGWISPYYDSSYYPNFDHWGQGTLVTVSS VL: QSALTQPASVSGSPGQSITISCTGTSYDVGKFDLVSWYQQHPGKAPKYMIYEVNKWPSGVSHRFSGSKSGNTASLTISGLQAEDEADYYCCSFGGSATVVCGGGTKVTVL | 195 |
| DH270.5 (antibody, V domains shown) VH: QVQLVQSGAEVKNPGASVKVSCAPSGYTFTDFYIHWVRLAPGQGLEWLGWMNPKTGRTNQGQNFQGRVIMTRDTSIGTAYMELRSLTSDDTAVYYCVTGAWISDYYDSSYYPNFDHWGQGTLVTVSS VL: LPVLTQPASVSGSPGQSITISCTGTIYDVGKFDLVSWYQHHPGKAPKYLIYEVKKWPSGVSHRFSGSKSGNTASLTISGLQVEDEADYYCCSFGGSAAVVCGGGTKVTVL | 281 |
| DH270.4 (antibody, V domains shown) VH: EVQLVQSGAEMKNPGASVKVSCAASGYGFTDFYIHWVRLAPGHGLQWMGWMNPKTGRTNNAQDFQGRVILTRDTSIGTAYMELRRLTSDDTAVYYCVTGGWISPYYDSSYYPNFDHWGQGTLITVSS VL: QSALTQPASVSGSPGQSITISCTGTSYDVAKFDLVSWFQQHPGKAPKYMIYEVNKWPSGVSHRFSGSKSGNTASLTISGLQAEDEADYYCCSFGGSATVVCGGGTKVTVL | 346 |
| DH270.2 (antibody, V domains shown) VH: QVQLVQSGAEMKKPGASVRVSCKASGYTFTDYYIHWVRQAPGQGPEWMGWINPSTGRTNSPQKFQGRVIMTRDTSISTAYMDLNRLTSDDTAMYYCTTGGWIGLYSDTSGYPNFDYWGQGTLVTVSS VL: QSALTQPASVSGSPGQSITISCTGTNYDVGSYNLVSWYQQHPGKVPKYIIYEVNKRPSGVSNRFSGSKSGNTASLTISGLQAEDEADYYCCSYAGSSIIFFGGGTKLTVI | 4770 |

From patent US20200113997A1 (published 2020)
